B1: STEAP1 (parent)
chain: WMLTRKQFGLLSFFFAVLHAIYSL
B2: PCDHGA10 (parent)
chain: FGIEIEVTDINDNAPKFQAENLDV

Variants of: B1
Assay: protein stability index of a GFP-peptide fusion (GPS, HEK-293T) (PSI 1-6); higher = more stable
Settings: c terminus: a fixed tail appended
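Further: lentivirally expressed fusions sorted by FACS into six bins by GFP to DsRed ratio, PSI derived from sequencing read proportions per bin multiplied by bin number.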

Protein stability index: each site, then its substitutions
F14: R 1.51 | V 1.69 | Q 3.11 | L 1.73 | N 2.85 | D 3.4 | M 1.41 | G 2.11 | I 2.96 | W 1.82 | K 2.49 | P 2.09 | A 3.09 | T 2.46 | Y 1.47 | C 2.35 | E 3.11 | S 2.82 | H 2
L18: A 2.43 | G 2.66 | I 2 | H 2.03 | V 1.66 | F 1.63 | D 3.5 | K 3.01 | W 1.74 | R 1.8 | E 3.98 | C 2.75 | Y 2.13 | P 3.09 | S 1.86 | Q 2.82 | T 1.92
S23: L 1.27 | C 1.75 | D 1.95 | V 1.94 | K 2.01 | Y 2.37 | W 2 | E 1.49 | G 1.48 | T 1.55 | I 1.92 | A 1.36 | R 2.43 | Q 1.39 | P 1.89 | H 1.71 | F 1.79 | N 2.21 | M 2.3
Y22: H 2.1 | W 1.99 | K 2.29 | D 2.97 | T 2.03 | R 2.46 | N 1.34 | E 2.93 | G 2.2 | S 1.63 | C 2.43 | Q 2.21 | I 1.1 | L 1.79 | A 1.58 | V 2.48 | P 2.29 | M 2.45 | F 1.56
A20: T 1.36 | F 2.8 | V 1.08 | H 1.62 | C 2.18 | Y 2.1 | M 1.66 | R 1.73 | K 1.78 | W 1.79 | G 2.13 | I 1.88 | Q 2.69 | P 2.51 | N 2.02 | L 2.46 | D 2.62 | S 2.41 | E 2.56
I21: P 3.02 | T 1.05 | E 4.75 | N 2.81 | Y 1.95 | W 1.63 | H 3.26 | S 2.16 | R 3.01 | L 3.18 | G 2.17 | V 2.18 | F 2.26 | M 1.66 | C 2.21 | D 3.17 | A 3.66 | Q 1.61 | K 2.41
S12: G 1.75 | V 1.67 | I 1.61 | E 2.95 | N 2.05 | R 2.57 | F 1.9 | M 1.67 | W 2.76 | T 1.84 | K 1.86 | C 1.88 | Q 2.38 | D 1.28 | L 1.66 | H 1.94 | A 2.05 | Y 1.25 | P 3.09
H19: A 3.76 | N 1.89 | I 2.58 | T 2.67 | K 2.16 | M 3.02 | C 2.94 | V 3.14 | E 1.65 | F 2.76 | G 2.77 | R 1.74 | L 2.59 | P 3.26 | W 3.67 | S 2.34 | D 1.82 | Q 2.22 | Y 3.25
V17: W 2.33 | Y 2.99 | E 2.34 | L 1.7 | P 2.19 | Q 3.15 | I 1.73 | K 2.53 | F 3.24 | C 2.6 | N 4.05 | D 5.3 | A 2.25 | M 2.85 | T 2.33 | S 2.07 | G 2.58 | H 3.31
F13: Q 1.78 | K 2.38 | C 2.02 | V 3.35 | M 2.13 | L 2.65 | A 3.27 | E 4.58 | T 2.69 | H 3.2 | R 2.44 | G 2.25 | W 1.67 | P 1.95 | Y 1.95 | I 2.11
L10: M 1.83 | I 2.05 | N 1.99 | W 1.35 | Y 1.66 | S 1.53 | P 1.33 | Q 3.24 | T 1.96 | R 4.36 | K 1.73 | V 1.52
L24: A 1.91 | M 1.97 | D 2.7 | V 2.27 | I 1.86 | H 1.83 | T 2.26 | W 2.13 | E 1.4 | Q 1.94 | C 2 | P 2.08 | S 2.14 | Y 2 | F 1.46 | R 1.84 | N 1.98 | G 2.74 | K 3.44
A16: H 1.76 | C 1.69 | Q 1.52 | W 2.19 | Y 1.54 | D 2.07 | F 1.93 | E 1.67 | S 1.45 | G 1.77 | V 1.51 | I 1.77 | R 1.93 | T 2.63 | M 1.13 | P 1.59 | K 1.46 | L 1.64 | N 1.88
L11: N 3.38 | S 1.62 | Q 1.67 | E 2.43 | P 1.57 | M 2.52 | I 2.31 | F 1.72 | W 1.72 | D 2.23 | A 2.01 | C 1.48 | T 1.95 | R 1.51 | K 1.34 | V 2.15 | G 1.96 | Y 2.31
F15: Y 1.71 | V 1.51 | S 1.74 | G 1.58 | R 1.7 | P 1.78 | H 1.73 | N 1.4 | Q 2.62 | I 1.94 | C 1.77 | E 2.7 | M 1.62 | L 2 | A 1.82 | K 1.58 | W 1.55 | D 2.78 | T 1.32

Variants of: B2
Assay: as above
Settings: c terminus: a fixed tail appended

Protein stability index, by site and new letter:
I3: T 4.65 | K 4.73 | M 3.96 | C 4.43 | P 4.96 | W 3.62 | A 4.52 | L 4.08 | E 5.11 | V 3.65 | Q 4.79 | F 2.71 | R 4.52 | Y 3.84 | H 4.88 | S 5.2 | D 4.76 | G 4.73 | N 4.68
E4: A 2.46 | I 1.75 | F 1.66 | D 3.44 | H 2.2 | G 3.42 | C 2.6
G2: V 1.64 | C 2 | Q 2.09 | M 1.9 | E 1.88 | Y 3 | P 4.63 | D 2.72 | R 1.49 | S 1.92 | K 1.52 | A 2.02 | N 1.9 | L 2.17 | I 2.57 | F 1.86 | H 2.18 | T 1.78
F1: I 2.57 | M 3.52 | T 4.93 | D 4.71 | Y 3.52 | P 5.08 | V 2.93 | A 4.72 | L 3.05 | W 2.54 | C 3.59 | Q 4.58 | R 4.17 | S 4.75 | K 4.39 | N 4.69 | H 4.67 | E 4.8 | G 4.49
